This note sets out measurements from US20120316071A1.

The target of experiment [1] is rHuman Erythropoietin R/Fc Chimera, CF (R&D Systems Cat#963-ER) (human) (UniProt P19235). Briefly: ECL Multispot (MSD), antigen spotted; Fab 0.50 (µM); blank 95; first of duplicates.
The target is the same in experiment [2]. Description: MSD ECL multispot assay, antigen spotted on plate, Fab in solution; blank spot of this row 274. Note: test concentration or dose not given here.
Experiment [3] has the same target. Briefly: ECL Multispot (MSD), antigen spotted; Fab 500 (µM); blank 570; first of duplicates.
Experiment [4] has the same target. Description: ECL Multispot (MSD), antigen spotted; Fab 50 (µM); blank 332; first of duplicates.
Experiment [5] addresses rHuman Erythropoietin R/Fc Chimera (human) (UniProt P19235). Description: ECL multispot (MSD) binding assay; antigen spotted on plate, Fab in solution. Note: test concentration or dose not given here.
Experiment [6] concerns the target rHuman Erythropoietin R/Fc Chimera, CF (R&D Systems Cat#963-ER) (human) (UniProt P19235). Description: MSD ECL multispot assay, antigen spotted on plate, Fab in solution; blank spot of this row 282. Note: test concentration or dose not given here.
Experiment [7] has the same target. Description: ECL Multispot (MSD), antigen spotted, Fab 500.00 (column head 'Fab [µM]'); blank 495.
Experiment [8] deals with rHuman EGF R/Fc Chimera, CF (R&D Systems Cat#344-ER) (human) (UniProt P00533). The description is as above.
Experiment [9] deals with rHuman Erythropoietin R/Fc Chimera, CF (R&D Systems Cat#963-ER) (human) (UniProt P19235). Description: MSD ECL multispot assay, antigen spotted on plate, Fab in solution; blank spot of this row 277. Note: test concentration or dose not given here.
Experiment [10] has the same target. Description: ECL Multispot (MSD), antigen spotted, Fab 50.00 (column head 'Fab [µM]'); blank 223.
Experiment [11] has as its target rHuman EGF R/Fc Chimera, CF (R&D Systems Cat#344-ER) (human) (UniProt P00533). The description is as above.
The target of experiment [12] is rHuman Erythropoietin R/Fc Chimera, CF (R&D Systems Cat#963-ER) (human) (UniProt P19235). Briefly: ECL Multispot (MSD), antigen spotted; Fab 5 (µM); blank 102; first of duplicates.
Experiment [13] shares this target. Briefly: ECL Multispot (MSD), antigen spotted, Fab 5.00 (column head 'Fab [µM]'); blank 268.
For experiment [14], the target named is rHuman EGF R/Fc Chimera, CF (R&D Systems Cat#344-ER) (human) (UniProt P00533). The description is as above.
The target in experiment [15] is rHuman Erythropoietin R/Fc Chimera, CF (R&D Systems Cat#963-ER) (human) (UniProt P19235). Description: ECL Multispot (MSD), antigen spotted, Fab 0.50 (column head 'Fab [µM]'); blank 206.
Experiment [16] deals with rHuman EGF R/Fc Chimera, CF (R&D Systems Cat#344-ER) (human) (UniProt P00533). The description is as above.
The target of experiment [17] is rHuman Erythropoietin R/Fc Chimera, CF (R&D Systems Cat#963-ER) (human) (UniProt P19235). Description: ECL multispot (MSD) binding assay, antigen spotted on plate. Note: test concentration or dose not given here.
For experiment [18], the target named is rHuman Erythropoietin R/Fc Chimera, CF (human) (UniProt P19235). Briefly: ECL multispot (MSD) assay, antigen spotted on the plate, Fab in solution; blank spot of the same well 284. Note: test concentration or dose not given here.
In experiment [19] the target is rHuman ErbB2/Fc Chimera, CF (R&D Systems Cat#1129-ER) (human) (UniProt P04626). Briefly: MSD Multispot ECL, antigen spotted on plate, Fab in solution; blank spot of the row 424.
Experiment [20] concerns the target rHuman CD44/Fc Chimera, CF (R&D Systems Cat#3660-CD) (human) (UniProt P16070). The description is as above.
In experiment [21] the target is rHuman IGF-1 sR, (IGF-1 sR), CF (R&D Systems Cat#391-GR) (human) (UniProt P08069). The description is as above.
For experiment [22], the target named is rHuman HGF R/c-MET/Fc Chimera, CF (R&D Systems Cat#358-MT/CF) (human) (UniProt P08581). Briefly: ECL (MSD) multispot binding assay, antigen spotted on the plate, Fab in solution; blank spot of this well 213.
Experiment [23] deals with rHuman Notch-1/Fc Chimera, CF (R&D Systems Cat#3647-TK) (human) (UniProt P46531). Described as above.
In experiment [24] the target is rHuman ErbB2/Fc Chimera, CF (R&D Systems Cat#1129-ER) (human) (UniProt P04626). The experiment is described as above.
The target in experiment [25] is rHuman CD44/Fc Chimera, CF (R&D Systems Cat#3660-CD) (human) (UniProt P16070). The experiment is described as above.
Experiment [26] addresses rHuman EGF R/Fc Chimera, CF (R&D Systems Cat#344-ER) (human) (UniProt P00533). The experiment is described as above.
Experiment [27] has as its target rHuman IGF-1 sR, CF (R&D Systems Cat#391-GR) (human) (UniProt P08069). The description is as above.
Experiment [28] concerns the target rHuman ErbB2/Fc Chimera, CF (R&D Systems Cat#1129-ER) (human) (UniProt P04626). Description: MSD Multispot ECL, antigen spotted on plate, Fab in solution; blank spot of the row 240.
The target of experiment [29] is rHuman CD44/Fc Chimera, CF (R&D Systems Cat#3660-CD) (human) (UniProt P16070). The description is as above.
The target in experiment [30] is rHuman IGF-1 sR, (IGF-1 sR), CF (R&D Systems Cat#391-GR) (human) (UniProt P08069). Described as above.
The target of experiment [31] is rHuman ErbB2/Fc Chimera, CF (R&D Systems Cat#1129-ER) (human) (UniProt P04626). Briefly: MSD Multispot ECL, antigen spotted on plate, Fab in solution; blank spot of the row 337.
Experiment [32] concerns the target rHuman IGF-1 sR, (IGF-1 sR), CF (R&D Systems Cat#391-GR) (human) (UniProt P08069). The description is as above.
Experiment [33] addresses rHuman ErbB2/Fc Chimera, CF (R&D Systems Cat#1129-ER) (human) (UniProt P04626). Briefly: MSD Multispot ECL, antigen spotted on plate, Fab in solution; blank spot of the row 373.
Experiment [34] concerns the target rHuman IGF-1 sR, (IGF-1 sR), CF (R&D Systems Cat#391-GR) (human) (UniProt P08069). The experiment is described as above.
The target of experiment [35] is rHuman ErbB2/Fc Chimera, CF (R&D Systems Cat#1129-ER) (human) (UniProt P04626). Briefly: MSD Multispot ECL, antigen spotted on plate, Fab in solution; blank spot of the row 297.
Experiment [36] has as its target rHuman CD44/Fc Chimera, CF (R&D Systems Cat#3660-CD) (human) (UniProt P16070). The description is as above.
Experiment [37] addresses rHuman IGF-1 sR, (IGF-1 sR), CF (R&D Systems Cat#391-GR) (human) (UniProt P08069). The description is as above.
Experiment [38] deals with rHuman ErbB2/Fc Chimera, CF (R&D Systems Cat#1129-ER) (human) (UniProt P04626). Briefly: MSD Multispot ECL, antigen spotted on plate, Fab in solution; blank spot of the row 300.
In experiment [39] the target is rHuman CD44/Fc Chimera, CF (R&D Systems Cat#3660-CD) (human) (UniProt P16070). The experiment is described as above.
For experiment [40], the target named is rHuman IGF-1 sR, (IGF-1 sR), CF (R&D Systems Cat#391-GR) (human) (UniProt P08069). The description is as above.
The target in experiment [41] is rHuman ErbB2/Fc Chimera, CF (R&D Systems Cat#1129-ER) (human) (UniProt P04626). Briefly: MSD Multispot ECL, antigen spotted on plate, Fab in solution; blank spot of the row 316.
Experiment [42] concerns the target rHuman IGF-1 sR, (IGF-1 sR), CF (R&D Systems Cat#391-GR) (human) (UniProt P08069). Described as above.
For experiment [43], the target named is rHuman ErbB2/Fc Chimera, CF (R&D Systems Cat#1129-ER) (human) (UniProt P04626). Briefly: MSD Multispot ECL, antigen spotted on plate, Fab in solution; blank spot of the row 351.
Experiment [44] concerns the target rHuman IGF-1 sR, (IGF-1 sR), CF (R&D Systems Cat#391-GR) (human) (UniProt P08069). The description is as above.

For “Fab VH1-46_IGHD6-6*01_IGHJ1*01 S102A/S103P/S104F/H111F (APFF) & L6_IGKJ1*01”, the ECL signal in experiment [1] is 122; in [2] it was 473; in [3], 4720; in experiment [4], 736; in [5], 433; in experiment [6] it was 1060. Besides, the ECL signal in experiment [7] amounted to 4970; in experiment [8], 2900; in experiment [9] it was 467; in [10], 879; in experiment [11] it was 552; in experiment [12] it was 294. In addition, the ECL signal is 423 in experiment [13], 303 in experiment [14], 298 in experiment [15] and 266 in [16].

As for “Fab VH1-46_IGHD6-6*01_IGHJ1*01 S102A/S103P/S104F/H111F (APFF) & L6_IGKJ1*01 S31A”, the ECL signal in [17] amounted to 461.

For the substance “Fab VH1-46_IGHD6-6*01_IGHJ1*01 S102A/S103P/S104F/H111F (APFF) & L6_IGKJ1*01 S31Y”, the ECL signal in experiment [18] is 604.

Take “Fab VH5-51_IGHD5-18*01>3_IGHJ4*01 G100K/G104T (KT) & V3-4_IGLJ1*01”: the ECL signal in experiment [19] worked out at 1100; in experiment [20], 579; in [21] it was 877; in experiment [22], 867; in experiment [23] it was 437; in [24] it was 1100. Also, the ECL signal in experiment [25] was 540; in experiment [26], 768; in experiment [27] it was 781; in [28], 1070; in experiment [29] it was 633; in experiment [30], 964.

Turning to “Fab VH5-51_IGHD5-18*01>3_IGHJ4*01 G100K/G104T F29A & V3-4_IGLJ1*01”, the figures for the ECL signal in experiment [31] and in [32] were 1040 and 945, respectively.

For “Fab VH5-51_IGHD5-18*01>3_IGHJ4*01 G100K/G104T G24A & V3-4_IGLJ1*01”, the ECL signal in experiment [33] turned out to be 869; in experiment [34], 879.

On to “Fab VH5-51_IGHD5-18*01>3_IGHJ4*01 G100K/G104T G35A & V3-4_IGLJ1*01”, for which the ECL signal in experiment [35] turned out to be 911; in experiment [36], 624; in [37] it was 899.

Turning to “Fab VH5-51_IGHD5-18*01>3_IGHJ4*01 G100K/G104T I34A & V3-4_IGLJ1*01”, the ECL signal came to 1150 in experiment [38], 608 in experiment [39] and 923 in experiment [40].

Turning to “Fab VH5-51_IGHD5-18*01>3_IGHJ4*01 G100K/G104T S28A & V3-4_IGLJ1*01”, the values for the ECL signal in [41] and in [42] were 1070 and 924, respectively.

With “Fab VH5-51_IGHD5-18*01>3_IGHJ4*01 G100K/G104T T30A & V3-4_IGLJ1*01”, the ECL signal in experiment [43] came out at 1070; in experiment [44], 968.
